Laboratory results taken from PMC3065461, “A Transient Homotypic Interaction Model for the Influenza A Virus NS1 Protein Effector Domain” (PLoS ONE, 2011).

Molecular target: the molecule itself
Experiment: SEC; gel filtration of the purified EDs; data not shown

Protein | stoichiometry N
PR8 NS1 effector domain (ED), wild type, residues 73-230 (domain or fragment, also called PR8 ED; PR8 NS1 ED) SDEALKMTMASVPASRYLTDMTLEEMSRDWSMLIPKQKVAGPLCIRMDQAIMDKNIILKANFSVIFDRLETLILLRAFTEEGAIVGEISPLPSLPGHTAEDVKNAVGVLIGGLEWNDNTVRVSETLQRFAWRSSNENGRPPLTPKQKREMAGTIRSEV | 2
Alb/76 NS1 effector domain (ED), residues 73-230 (domain or fragment, also called Alb/76 ED; Alb/76 NS1 ED) TDENLKIAIASSPAPRYITDMSIEEISREWYMLMPRQKITGGLMVKMDQAIMDKRITLKANFSVLFDQLETLVSLRAFTDDGAIVAEISPIPSMPGHSTEDVKNAIGILIGGLEWNDNSIRASENIQRFAWGIRDENGGPPLPPKQKRYMARRVESEV | 2
